The record followed here is US20250302016A1, “GENETICALLY MODIFIED NON-HUMAN ANIMAL WITH HUMAN OR CHIMERIC GENES” (Biocytogen Pharmaceuticals (Beijing) Co., Ltd., priority 2022, published 2025).

In this experiment the test system is IL2 signaling pathway (STAT5 phosphorylation) in mouse splenocytes. The experiment in a line: Flow cytometry detection of pSTAT5 expression in T cells and NK cells after IL2 stimulation, IL2RB/IL2RG/IL15/IL15RA four-gene humanized mice. The experiment is classed as cell-based. Conditions: for pSTAT5 expression (CD4+ T cell) / pSTAT5 expression (CD8a+ cell) / pSTAT5 expression (NK1.1+ cell): splenocytes, 10 μg/mL IL2. As to the method:
The IL2 and IL15 signaling pathways in IL2RB/IL2RG double-gene humanized mice were detected by flow cytometry. Specifically, three 6-week old female C57BL/6 wild-type mice (+/+), three IL2RB/IL2RG double-gene humanized heterozygous mice (H/+; H/+), and three IL2RB/IL2RG double-gene humanized homozygous mice (H/H; H/H) were selected. […] No primary antibody was added to the corresponding secondary antibody control groups.
The IL2 and IL15 signaling pathways in IL2RB/IL2RG/IL15/IL15RA four-gene humanized mice were detected by flow cytometry. […] The cells were stained with: Brilliant Violet 421™ anti-mouse NK-1.1 Antibody, APC anti-mouse CD4 Antibody, and/or Alexa Fluor 700 anti-mouse CD8a Antibody, and then subjected to flow cytometry analysis.

[1] abbreviates: IL2RB/IL2RG/IL15/IL15RA four-gene humanized homozygous mice (H/H).

B1: mIL2: Biotinylated Mouse IL-2 Protein, purchased from Kactus Biosystems (protein, UniProt P04351 21-169, looked up)
Interleukin-2: APTSSSTSSSTAEAQQQQQQQQQQQQHLEQLLMDLQELLSRMENYRNLKLPRMLTFKFYLPKQATELKDLQCLEDELGPLRHVLDLTQSKSFQLEDAENFISNIRVTVVKLKGSDNTFECQFDDESATVVDFLRRWIAFCQSIISTSPQ
modifications: biotinylated
notes: Biotinylated Mouse IL-2 Protein, purchased from Kactus Biosystems
Regarding B1, under setting [1], the “pSTAT5 expression (CD4+ T cell)” value is on record as 5.3%, the “pSTAT5 expression (CD8a+ cell)” value worked out at 12.5% and the “pSTAT5 expression (NK1.1+ cell)” value worked out at 70.7%. Also, the “phosphorylated expression of STAT5 after stimulation (in words)” value (splenocytes of +/+ and four-gene humanized homozygous (H/H) mice, 10 μg/mL) is recorded as “phosphorylated expression of STAT5 was detected”. Further, where the note is “wild-type C57BL/6 mice (+/+)”, the “pSTAT5 expression (CD4+ T cell)” value came to 16.6%, the “pSTAT5 expression (CD8a+ cell)” value came out at 89.9% and the “pSTAT5 expression (NK1.1+ cell)” value came out at 41.6%.
